Results on two molecules are retold here after patent publication US20090053745A1 (RUTGERS THE STATE UNIVERSITY OF NEW JERSEY, published 2009).

In assay [1] the target is T1, cypin (endogenous, rat brain extract) (rat, UniProt Q9WTT6 1-454).
T1 sequence (looked up): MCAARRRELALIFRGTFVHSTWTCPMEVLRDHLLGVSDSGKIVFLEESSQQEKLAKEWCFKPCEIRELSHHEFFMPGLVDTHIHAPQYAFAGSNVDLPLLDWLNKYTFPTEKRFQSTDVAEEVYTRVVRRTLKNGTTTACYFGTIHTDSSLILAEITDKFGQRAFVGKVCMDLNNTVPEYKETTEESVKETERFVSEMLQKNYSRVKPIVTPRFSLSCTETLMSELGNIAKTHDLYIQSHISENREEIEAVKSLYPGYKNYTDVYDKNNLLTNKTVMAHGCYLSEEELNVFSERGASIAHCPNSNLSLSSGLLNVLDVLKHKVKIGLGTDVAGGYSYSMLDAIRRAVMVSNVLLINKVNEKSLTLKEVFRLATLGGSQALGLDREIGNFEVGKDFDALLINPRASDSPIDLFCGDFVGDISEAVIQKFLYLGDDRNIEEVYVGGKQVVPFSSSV
Briefly: GST affinity chromatography with rat brain extract. The method, then:
COS-7 cells were transfected with either pEGFP-C1-snapin, pDsRed-N1-snapin, pEGFP-C1-cypin or pDsRed-N1-cypin using Lipofectamine 2000 (Invitrogen, Carlsbad, Calif.) as described by manufacturer. Cells were washed with cold PBSE (phosphate buffered saline and 1 mM EDTA) and scraped into 5 mL of TEEN (25 mM Tris-HCl, pH 7.4, 1 mM EDTA, 1 mM EGTA, 100 mM NaCl). Cells were homogenized using a Potter-Elvehjem tissue grinder (20 strokes). Phenylmethylsulfonyl fluoride and DTT were added to lysates to final concentrations of 1 mM and cells were further lysed by passing the extract through a 25 gauge needle 5 times. Lysates were centrifuged at 12,000×g for 10 minutes at 4° C. Triton X-100 was added to the supernatant to a final concentration of 1% and incubated at 4° C. for 30 minutes. Lysates were centrifuged at 12,000×g for 10 minutes at 4° C. COS-7 cell lysates were incubated with glutathione-sepharose beads bound to 25 μg of the appropriate GST-fusion proteins for 1 hour at 4° C. Beads were washed three times with TEEN. Bound proteins were eluted with 0.5% SDS and 100 mM NaCl. Proteins were resolved on a 10% SDS polyacrylamide gel and transferred to PVDF membrane. Blots were probed with the indicated antibodies. For experiments using rat brain extracts, the extracts were prepared exactly as described above except that they were not passed through a 25 gauge needle. […]

Another assay addresses T2, GST-cypin (UniProt Q9WTT6 1-454).
T2 construct: Expressed in E. coli, purified on glutathione sepharose, eluted with glutathione and dialysed; No removal of GST is reported; also called purified cypin; not shown: glutathione S-transferase (GST) fusion partner
T2 sequence (looked up): T1 sequence (looked up)
As to the kind of experiment: competition co-immunoprecipitation of purified cypin (2 µM) and tubulin heterodimers (7 µM); ligand to be displaced: tubulin heterodimers; strip labelled α-Tubulin on the sheet. Here is the method: GST, GST-cypin, and GST-snapin were expressed in E. coli and purified using glutathione sepharose as previously described (Firestein et al., 1999). Purified proteins were eluted from the beads using glutathione and dialyzed against phosphate buffered saline. Purified cypin (2 μM) and the indicated concentrations of purified snapin were mixed with tubulin heterodimers (7 μM) in PEM buffer (80 mM PIPES, pH 6.9, 2 mM MgCl₂, 0.5 mM EGTA) containing 5% glycerol for 4-6 hours at 4° C. The mixtures were subjected to immunoprecipitation using a monoclonal antibody raised against tubulin. Binding of purified proteins was assayed by SDS-PAGE followed by Western blotting using a rabbit polyclonal antibody raised against cypin (Akum et al., 2004).
Since snapin binds to cypin's CRMP homology domain, which is responsible for binding tubulin heterodimers (Akum et al., 2004), it is possible that snapin could compete tubulin binding to cypin. To address this question, co-immunoprecipitation of purified cypin and tubulin heterodimers in the presence of full-length snapin or the N-terminal half of snapin (amino acids 1-68) was performed. No association of snapin with tubulin heterodimers by co-immunoprecipitation or affinity chromatography was found in the previous experiments (data not shown). […]

In assay [2] the target is PSD-95 (endogenous, rat brain extract) (rat, UniProt P31016 1-724, limits assumed). As to the kind of experiment: co-immunoprecipitation from rat brain extract with anti-snapin. The method, then: (§1) For co-immunoprecipitation studies, one rat brain was homogenized in 10 ml of TEE (25 mM Tris, 1 mM EGTA, 1 mM EDTA)+1 mM PMSF. Triton X-100 was added to a final concentration of 1% and proteins were extracted for 1 hour at 4° C. The extract was centrifuged at 12,000×g to remove insoluble material and the supernatant was incubated with either anti-cypin, anti-snapin, preimmune serum, rabbit IgG, anti-tubulin, or mouse IgG. Protein A beads were added and after a 1 hour incubation, the beads were washed with TEE+0.2% Triton X-100. Immunoprecipitated proteins were eluted with protein loading buffer and resolved by SDS-PAGE and transferred to PVDF membrane. Blots were probed with the indicated antibodies. Experiments were performed in duplicate or triplicate.
PSD-95 (endogenous, rat brain extract), sequence (P31016 whole entry): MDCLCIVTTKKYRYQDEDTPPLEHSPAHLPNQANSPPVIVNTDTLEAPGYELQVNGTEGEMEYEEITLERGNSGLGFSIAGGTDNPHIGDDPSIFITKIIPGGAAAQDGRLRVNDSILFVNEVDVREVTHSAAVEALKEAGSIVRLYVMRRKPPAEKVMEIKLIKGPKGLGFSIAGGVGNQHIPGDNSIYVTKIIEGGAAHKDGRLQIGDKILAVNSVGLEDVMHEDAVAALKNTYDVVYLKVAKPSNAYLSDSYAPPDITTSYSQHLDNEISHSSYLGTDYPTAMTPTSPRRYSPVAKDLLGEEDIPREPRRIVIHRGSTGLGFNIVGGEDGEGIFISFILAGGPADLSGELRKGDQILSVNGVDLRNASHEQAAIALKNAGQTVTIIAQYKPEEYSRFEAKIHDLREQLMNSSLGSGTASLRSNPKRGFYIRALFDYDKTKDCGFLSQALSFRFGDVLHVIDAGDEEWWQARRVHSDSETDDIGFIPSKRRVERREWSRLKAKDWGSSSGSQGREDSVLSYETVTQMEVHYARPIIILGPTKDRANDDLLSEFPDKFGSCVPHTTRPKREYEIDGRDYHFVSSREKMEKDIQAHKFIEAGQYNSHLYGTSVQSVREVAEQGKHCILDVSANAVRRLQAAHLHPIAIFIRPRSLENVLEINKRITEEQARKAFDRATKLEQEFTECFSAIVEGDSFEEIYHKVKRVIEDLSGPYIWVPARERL

Assay [3] concerns the target SNAP-25 (endogenous, rat brain extract) (rat, UniProt P60881 1-206). The assay is described as above. Here is the method:
as §1

SNAP-25 (endogenous, rat brain extract), sequence (P60881 whole entry): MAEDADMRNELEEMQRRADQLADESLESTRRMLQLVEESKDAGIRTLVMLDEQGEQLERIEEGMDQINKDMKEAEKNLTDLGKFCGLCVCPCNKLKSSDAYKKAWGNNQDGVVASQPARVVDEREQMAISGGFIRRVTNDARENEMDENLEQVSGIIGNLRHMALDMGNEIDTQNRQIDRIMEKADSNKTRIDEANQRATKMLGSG

B1: GST-snapin (first 68 amino acids) (other)
chain: MAGAGSAAVSGAGTPVAGPTGRDLFAEGLLEFLRPAVQQLDSHVHAVRESQVELREQIDNLATELCRI
notes: also called snapin(1-68); N-terminal half of snapin; not shown: glutathione S-transferase (GST) fusion partner
Consider B1, for which the binding result is “no binding” in assay [1] and “no binding (tested: 4 µM)” in the assay with GST-cypin.

B2: snapin (endogenous, rat brain extract) (other, UniProt P60192 2-136, looked up)
chain: AAAGSAAVSGAGTPVAGPTGRDLFAEGLLEFLRPAVQQLDSHVHAVRESQVELREQIDNLATELCRINEDQKVALDLDPYVKKLLNARRRVVLVNNILQNAQERLRRLNHSVAKETARRRAMLDSGVYPPGSPSK
notes: The smaller band may be a degradation product or a modified snapin
With B2, the binding result in assay [2] and in assay [3] was “no binding” throughout.
